{"source": "patent US20040224337", "key": {"FAS": {"molecular_target": "FAS (UniProt P25445)", "sequence (P25445 26-335)": "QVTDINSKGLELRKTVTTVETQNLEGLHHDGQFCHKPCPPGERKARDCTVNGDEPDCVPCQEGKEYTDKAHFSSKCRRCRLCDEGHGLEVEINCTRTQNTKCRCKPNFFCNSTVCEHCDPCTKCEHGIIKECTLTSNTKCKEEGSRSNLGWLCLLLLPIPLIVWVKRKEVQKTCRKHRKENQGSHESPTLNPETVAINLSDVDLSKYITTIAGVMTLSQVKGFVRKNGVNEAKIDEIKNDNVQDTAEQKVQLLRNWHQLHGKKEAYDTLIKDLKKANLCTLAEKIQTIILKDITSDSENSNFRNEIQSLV"}, "[1]": {"system": "FASpTyr275 peptide (Biotin-KKEAY(PO3)DTLI-COOH)"}}}
{"substance": "PTPL1/FAP-1", "values": [{"measurement": "tyrosine phosphorylation of immunoprecipitated FAS (PY20-HRP blot after incubation in phosphatase reaction buffer)", "setting": "FAS", "value": "endogenous FAP-1 dephosphorylates FAS"}, {"measurement": "in vitro phosphatase assay (dephosphorylation relative to vector as percent activity)", "setting": "[1]", "value": "FAP-1 immunoprecipitated from overexpressing cells dephosphorylates the biotinylated phospho-peptide (FASpY275) in an in vitro phosphatase assay"}]}
